Reference: patent publication US20060104978A1, “Methods and compositions for PDGF-C activation and inhibition” (LUDWIG INSTITUTE FOR CANCER RESEARCH, priority 2003, published 2006)

Target: latent PDGF-DD (Homo sapiens, UniProt Q9GZP0)
Test: In vitro cleavage of recombinant latent PDGF-DD with purified tPA
Type: biochemical
Set-up: Recombinant His6-tagged human PDGF-CC species and full-length PDGF-DD were expressed; made in house
Conditions: 0.2-20 μg/ml tPA, 4 hours at 37° C., CNBr activated fibrinogen
Description: A cotransfection assay was established to identify serine proteases able to cleave and activate latent PDGF-CC. Expression plasmids encoding the relevant enzymes and full-length PDGF-C were cotransfected into COS-1 cells, and aliquots of the conditioned media from the transfectants were subjected to SDS-PAGE and immunoblotting using antibodies to the growth factor domain of PDGF-C. […] As a specificity control, the ability of tPA and NT to use full-length PDGF-DD as the substrate in the cotransfection assay was analysed. […] One difference in the latter results, as compared with the results from the cotransfection assay, was that purified tPA generated a second intermediate species of 32 kDa using latent PDGF-CC as the substrate. It is possible that this intermediate is the result of digestion by plasmin contamination in the tPA preparation, since the size of the fragment is similar to that of plasmincleaved PDGF-CC previously reported (Li et al, 2000).
Recombinant latent PDGF-CC and PDGF-DD were digested with human tPA in 100 mM Tris-HCl pH 7.5, 0.1% Tween 20, and 0.1 mg/ml CNBr activated fibrinogen (Sigma) for 4 hours at 37° C. using 0.2-20 μg/ml tPA purified from human melanoma cells (T7776, Sigma). The digestions were analyzed by SDS-PAGE under reducing conditions and immunoblotted using affinity-purified antibodies against PDGF-C and PDGF-D, respectively (see above).

cleavage of recombinant latent PDGF-DD by purified tPA: but not PDGF-DD, is a substrate for tPA
Substance: tPA: tissue plasminogen activator, secreted serine protease; expressed, purified from human melanoma cells or recombinant
